The record followed here is US8273705B2, “Conversion of apoptotic proteins” (The Burnham Institute, priority 2002, dated 2012).

For this experiment, the system named is LNCaP cells. The experiment can be described thus: Dominant-negative Bcl-2/1-90 in LNCaP cells. It is filed as cell-based. As to the method:
The next approach involved using a fragment of Bcl-2 consisting of the TR3 interaction domain (loop region) to identify whether it could act in a dominant-negative fashion to inhibit TR3 mitochondrial targeting in LNCaP cells. Cells transiently transfected with the GFP-Bcl-2/1-90 mutant comprising of the first 90 N-terminal amino acids were treated with TPA to induce expression of TR3 and mitochondrial targeting of the endogenous TR3. […] Thus, Bcl-2/1-90 inhibits TR3 mitochondrial targeting, probably by competing with endogenous Bcl-2 for binding to TR3.
The effect of inhibiting endogenous Bcl-2 expression on the TR3-dependent apoptosis in MGC80-3 cells was next analyzed. […] However, 3-Cl-AHPC-induced apoptosis was suppressed by more than half (about 60%) in Bcl-2 siRNA-transfected cells. Similar results were obtained in H460 lung cancer cells. […] Thus, Bcl-2 can manifest a pro-apoptotic phenotype in settings where TR3 is expressed and targets to mitochondria.

B1: Bcl-2/1-90: Bcl-2 mutant comprising the first 90 N-terminal amino acids (protein, UniProt P10415 1-90, looked up, fragment)
chain: MAHAGRTGYDNREIVMKYIHYKLSQRGYEWDAGDVGAAPPGAAPAPGIFSSQPGHTPHPAASRDPVARTSPLQTPAAPGAAAGPALSPVP
modifications: GFP fusion
notes: Bcl-2 mutant comprising the first 90 N-terminal amino acids
Consider B1, for which the “TR3-dependent apoptosis induced by TPA and 3-Cl-AHPC” value (LNCaP cells) is “suppressed TR3-dependent apoptosis”. Moreover, the “mitochondrial targeting of endogenous TR3” value (LNCaP cells treated with TPA) is on record as “TR3 failed to target mitochondria”.
